Conditions: glycan lost

Substance	other: support of viral entry, other: percent increase over WT	other: viral replication
ACE2: N322Q	no change	–
ACE2: N690Q	no change	–
ACE2: N103Q	no change	–
ACE2: N90Q	60%	increases
ACE2: N432Q	no change	–
ACE2: N53Q	no change	–
ACE2: N546Q	68%	no change

— article PMC7794309
